# Laboratory results: paper PMC8852740, “Neutralization of Typhoid Toxin by Alpaca-Derived, Single-Domain Antibodies Targeting the PltB and CdtB Subunits” (Infection and Immunity, 2021)
# Substitutions are numbered along the chain they refer to. “And” between values parts separate entries of the source, which are not always exact repeats. Identical values can stand only once.
# B1: T2G1 (VHH)
# VHH: QVQLAESGGGLVQAGGSLRLSCAASGLTFDKYAIGWFRQAPGKERELVSCISTNYGSTYYADSVKGRFTISTDNAKNTVYLQMNGLKPEDTAVYYCAADTRSSWPSCNALDTWGQGTLVTVSS
# notes: also called anti-PltB VHH T2G1; source: E. coli Rosetta-gami 2(DE3)pLacI, pET32b+, purified (Ni-NTA)
# B2: T2G9 (VHH)
# VHH: QVQLVETGGGSVQAGGSLRLSCAASGFTFDDYAIGWFRQAPGKEREMILCINSRGGSTSYYADSVKGRFTVSVNSAKNTAYLQMNSLKPEDTAVYYCAADVTPPHSCNALDAWGQGTLVTVSS
# notes: also called anti-PltB VHH T2G9; source: E. coli Rosetta-gami 2(DE3)pLacI, pET32b+, purified (Ni-NTA)
# B3: T4F3 (VHH)
# VHH: QLQLVETGGGLVQPGGSLTLSCAASGFTLNYWHMGWYRQAPGKQRELVATISGHGITNYADSVKGRFTISRDDAKNSVYLQMNSLKPEDTAVYYCNFISRTNDWGQGTQVTVSS
# notes: also called anti-CdtB VHH T4F3; source: E. coli Rosetta-gami 2(DE3)pLacI, pET32b+, purified (Ni-NTA)
# B4: T2G11 (VHH)
# VHH: QVQLVETGGLVQAGGSLSLSCAVSGRTFNLLHLAWFRQAPGNERDLVASISGSLGSVYYADSVRGRFTISRDAANNTVYLQMNSLKLEDTAVYYCAGAPIFDRFSSSSSSYDYWGQGTQVTVSS
# notes: also called anti-PltB VHH T2G11; source: E. coli Rosetta-gami 2(DE3)pLacI, pET32b+, purified (Ni-NTA)
# B5: T4E8 (VHH)
# VHH: QLQLVESGGGLVQAGGSLRLSCAASGMSFSTYTMGWYRQAPGKRRGLVATISSGGSTNYADSVKGRFTISRDNAKDTVYLQMNSLKPEDTAEYYCNVKGDYQTPNMGYWGQGTRVTVSS
# notes: also called anti-CdtB VHH T4E8; source: E. coli Rosetta-gami 2(DE3)pLacI, pET32b+, purified (Ni-NTA)
# B6: T2E7 (VHH)
# VHH: QLQLVESGGGLVQPGGSLRLSCAASGFTLDYYAIGWFRQAPGKERERVSCISGRDGGTYYADSVKGRFAISRDNAQNTVYLQMSRLKPEDTAAYYCAADYADNYCTGSFPPDYWGQGTQVTVSS
# notes: also called anti-PltB VHH T2E7; source: E. coli Rosetta-gami 2(DE3)pLacI, pET32b+, purified (Ni-NTA)
# B7: T4B5 (VHH)
# VHH: QLQLAESGGGLVQPGGSLRLSCAASGSIFSINVMGWYRQVPGKQREWVASITRGGGTLYADSVKGRFTISRDSAKNTVYLQMNSLKPEDTAVYYCNADLMEDSDSDYHEYWGQGTQVTVSS
# notes: also called anti-CdtB VHH T4B5; source: E. coli Rosetta-gami 2(DE3)pLacI, pET32b+, purified (Ni-NTA)
# B8: T2F3 (VHH)
# VHH: QVQLAETGGALVQTGGSLRLSCAVSGRNSEIQGLGWYRQAPGKEREFVATINWRSGATYYDDSVKGRFSISRDNAENTVSLQMNDLKPDDTAVYYCGAGMSPIARMDYWGQGTQVTVSS
# notes: also called anti-PltB VHH T2F3; source: E. coli Rosetta-gami 2(DE3)pLacI, pET32b+, purified (Ni-NTA)
# B9: T2F11 (VHH)
# VHH: QVQLVETGGGLVQPGGSLRLSCVLSGSDLAYYNVGWFRQAPGKEREGVACTSRVSDTKYYADSVKARFTVARDNAKNTVNLQMNSLRPEDTAVYSCALLRWCTTEGSDSEGMGHWGKGTLVTVSS
# notes: also called anti-PltB VHH T2F11; source: E. coli Rosetta-gami 2(DE3)pLacI, pET32b+, purified (Ni-NTA)
# B10: T2F6 (VHH)
# VHH: QLQLAESGGGLVQPGGSLRLSCAVSGFMVNSYDIGWFRQAPGKAREGISCINTSGDTPNYADSVKGRFTISRDNAKNMVYLQMNSLKPEDTATYFCAANRMTRCSDYNGYPYWGQGTQVIVSS
# notes: also called anti-PltB VHH T2F6; source: E. coli Rosetta-gami 2(DE3)pLacI, pET32b+, purified (Ni-NTA)
# B11: T4E5 (VHH)
# VHH: QLQLVETGGGLVQPGGSLKLSCVASGSIFSINVMGWFRQASGKQREVVAQITRGGGTIYADSVKGRFTISRDDAKNSVYLQMNSLNPEDTAVYLCNADLMQGIDSEYEDYWGQGTQVTVSS
# notes: also called anti-CdtB VHH T4E5; source: E. coli Rosetta-gami 2(DE3)pLacI, pET32b+, purified (Ni-NTA)
# B12: T2F7 (VHH)
# VHH: QVQLVESGGGLVQPGGSLRLSCAASGFDFSRSTLSWVRQSPGKDFEWVSDINSGSTLTNYGDSVKGRFTTSRDNAKNTLYLQMNSLKPEDTAVYYCVKGMWITRDQPRGQGTQVTVSS
# notes: also called anti-PltB VHH T2F7; source: E. coli Rosetta-gami 2(DE3)pLacI, pET32b+, purified (Ni-NTA)
# B13: T4C4 (VHH)
# VHH: QVQLAESGGGLVQPGGSLRLSCAASGSIFSINVMGWYRQAPGKQRESVAVITRGGGTMYADSVKGRATISRDSAKNTVYLQMNSLKPEDTAVYYCNADLMQAVDSEYEDYWGQGTQVTVSS
# notes: also called anti-CdtB VHH T4C4; source: E. coli Rosetta-gami 2(DE3)pLacI, pET32b+, purified (Ni-NTA)
# B14: T4C12 (VHH)
# VHH: B13 VHH with S47F, G56S, M58D, A67F, S73N, A102T, V103S, D104A, Y110C
# notes: also called anti-CdtB VHH T4C12; source: E. coli Rosetta-gami 2(DE3)pLacI, pET32b+, purified (Ni-NTA)
# B15: T4C11 (VHH)
# VHH: B13 VHH with V2L, A5V, S7T, V33I, A67F
# notes: also called anti-CdtB VHH T4C11; source: E. coli Rosetta-gami 2(DE3)pLacI, pET32b+, purified (Ni-NTA)
# How the values were obtained:
# Settings in all cases: both partners purified
# [1] = target: T1, PltB homopentamer, biotinylated (Salmonella enterica serovar Typhi; …, UniProt Q8Z6A3, biotinylated with EZ-link NHS-Biotin (sites not given)); test: ELISA; […] (30 min, 37°C) […]
# T1 construct: also called PltB5; pentameric PltB subunits
# [2] = target: T2, typhoid toxin (A2B5 holotoxin: CdtB, PltA and a PltB homopentamer), biotinylated (Salmonella enterica serovar Typhi; …, UniProt Q8Z6A7;Q8Z6A4;Q8Z6A3); test: BLI; Octet Red96e; […] (2 µg/mL) […]; association 5 min, dissociation 30 min; 25°C; 1:1 model; […]
# T2 construct: also called TyT; biotinylated typhoid toxin; not shown: His6, C-terminal, kept; copies: 1 + 1 + 5
# [3] = target: T3, typhoid toxin (A2B5 holotoxin: CdtB, PltA and a PltB homopentamer), biotinylated (Salmonella enterica serovar Typhi; …, UniProt Q8Z6A7;Q8Z6A4;Q8Z6A3); test: ELISA; […] (30 min, 37°C) […]
# T3 construct: also called TyT; biotinylated typhoid toxin; not shown: His6, C-terminal, kept; copies: 1 + 1 + 5
# [4] = target: T3, typhoid toxin (A2B5 holotoxin: CdtB, …); test: BLI; Octet Red96e; […] (2 µg/mL) […]; association 5 min, dissociation 30 min; 25°C; 1:1 model; […]; remark: listed apart in the source
binder,measurement,setting,value
B1,binding result,[1],binds
B2,binding result,[1],binds
same,kon,[2],155000 M⁻¹ s⁻¹ and 139000 M⁻¹ s⁻¹ and 105000 M⁻¹ s⁻¹
B3,binding result,[3],binds
B4,binding result,[1],binds
B5,Kd,[2],2.03 nM and 4.44 nM
same,kon,[2],53300 M⁻¹ s⁻¹ and 73600 M⁻¹ s⁻¹
B6,binding result,[1],binds
same,Kd,[2],0.629 nM and 0.618 nM and 0.911 nM
same,koff,[2],0.000278 s⁻¹ and 0.000313 s⁻¹ and 0.000369 s⁻¹
same,kon,[2],443000 M⁻¹ s⁻¹ and 507000 M⁻¹ s⁻¹ and 405000 M⁻¹ s⁻¹
B7,binding result,[3],binds
B8,binding result,[1],binds
B9,binding result,[1],binds
B10,binding result,[1],binds
B11,kon,[4],424000 M⁻¹ s⁻¹ and 382000 M⁻¹ s⁻¹ and 306000 M⁻¹ s⁻¹
B12,binding result,[1],binds
B13,Kd,[4],0.284 nM and 0.11 nM
same,koff,[4],0.000264 s⁻¹ and 0.00026 s⁻¹
same,kon,[4],929000 M⁻¹ s⁻¹ and 2.36e+06 M⁻¹ s⁻¹
B14,Kd,[4],2.84 nM and 1.55 nM
same,koff,[4],0.00121 s⁻¹ and 0.00243 s⁻¹
B15,binding result,[3],binds
